# Data from patent US6891028 (CEDARS SINAI MEDICAL CENTER, dated 2005).
# B1: FLAG-tagged TfR2-α (transferrin receptor 2, α form), expressed on transfected CHO-TRVb cells (receptor)
# chain: MERLWGLFQRAQQLSPRSSQTVYQRVEGPRKGHLEEEEEDGEEGAETLAHFCPMELRGPEPLGSRPRQPNLIPWAAAGRRAAPYLVLTALLIFTGAFLLGYVAFRGSCQACGDSVLVVSEDVNYEPDLDFHQGRLYWSDLQAMFLQFLGEGRLEDTIRQTSLRERVAGSAGMAALTQDIRAALSRQKLDHVWTDTHYVGLQFPDPAHPNTLHWVDEAGKVGEQLPLEDPDVYCPYSAIGNVTGELVYAHYGRPEDLQDLRARGVDPVGRLLLVRVGVISFAQKVTNAQDFGAQGVLIYPEPADFSQDPPKPSLSSQQAVYGHVHLGTGDPYTPGFPSFNQTQFPPVASSGLPSIPAQPISADIASRLLRKLKGPVAPQEWQGSLLGSPYHLGPGPRLRLVVNNHRTSTPINNIFGCIEGRSEPDHYVVIGAQRDAWGPGAAKSAVGTAILLELVRTFSSMVSNGFRPRRSLLFISWDGGDFGSVGSTEWLEGYLSVLHLKAVVYVSLDNAVLGDDKFHAKTSPLLTSLIESVLKQVDSPNHSGQTLYEQVVFTNPSWDAEVIRPLPMDSSAYSFTAFVGVPAVEFSFMEDDQAYPFLHTKEDTYENLHKVLQGRLPAVAQAVAQLAGQLLIRLSHDRLLPLDFGRYGDVVLRHIGNLNEFSGDLKARGLTLQWVYSARGDYIRAAEKLRQEIYSSEERDERLTRMYNVRIMRVEFYFLSQYVSPADSPFRHIFMGRGDHTLGALLDHLRLLRSNSSGTPGATSSTGFQESRFRRQLALLTWTLQGAANALSGDVWNIDNNF
# notes: The text describes TfR2-α as residues 1-801 (cytoplasmic 1-80, transmembrane 81-104, extracellular 105-801); Expressed from pcDNA3 in TfR-deficient CHO-TRVb cells, both stably and transiently; A disulfide-linked dimer is inferred from the non-reducing immunoblot; also called TfR2 cells; TfR2-α cells; not shown: amino terminal FLAG tag
# Target: the molecule itself
# Assay: anti-FLAG immunoblot of cell lysates, reducing (~105 kDa) against non-reducing (~215 kDa) SDS-PAGE
# Experimental: Transfection and Immunoblotting. CHO-TRVb cells were maintained in F12-nutrient mixture (Gibco-BRL) supplemented with 5% fetal bovine serum. An amino terminal FLAG-tagged TfR2-α cDNA was subcloned into pcDNA3 (Invitrogen, Carlsbad, Calif.). This plasmid (100 μg) was transfected into CHO-TRVb cells using Lipofectin (Gibco-BRL). For transient expression, cells were harvested 48 h after the transfection. We also isolated a stably expressing clone using G418 (200 μg/ml) selection and a standard limiting dilution method. The protein expression was confirmed by immunoblotting using anti-FLAG (M5) antibody
# Tf-binding to the TfR2-α Transfected Cells. To analyze the function of TfR2-α, we stably transfected CHO-TRVb cells, which lack functional TfR, with FLAG-tagged TfR2-α. FIGS. 6A, 6B and 6C show the expression and functional analysis of TfR2-α protein. In FIG. 6A, Tf-binding to the cell surface was examined in neomycin resistant control CHO-TRVb cells (left panels), FLAG-tagged TfR2-α stably transfected cells (middle) and TRVb-1,TfR stably transfected cells (right). The cells were incubated with 5 μg/ml of biotinylated human holo-Tf in MEM a media for 30 min on ice. After washing with PBS, the cells were incubated with streptavidin-PE, and analyzed by flow cytometry. […] After transferring to a PVDF membrane, FLAG-fusion proteins were detected by immunoblotting. […]
protein,measurement,value
B1,binding result,binds
